Key:
[1] = tested on: C[C@H]1O[C@@H](O[C@H]2[C@@H](O)C[C@H](O[C@H]3[C@@H](O)C[C@H](O[C@H]4CC[C@@]5(C)[C@H](CC[C@@H]6[C@@H]5CC[C@]5(C)[C@@H](C7=CC(=O)OC7)CC[C@]65O)C4)O[C@@H]3C)O[C@@H]2C)C[C@H](O)[C@@H]1O; assay: purified protein, by the assay type; details: other: 37 °C, 3.2 mM ATP, 50 nM proteoliposome, modified Michaelis-Menten fit, pH 7.4
Method: The Chifflet method is a colorimetric method that measures the amount of free inorganic phosphate (Pi) through the formation of ammonium molybdate and Pi complex, which produces a strong absorbance at 850 nm. The absorbance was measured on a 96-well plate using a CLARIOstar microplate reader (BMG Labtech, Ortenberg, Germany). […] The final concentrations of the proteoliposome and ATP were maintained at 50 nM and 3.2 mM, respectively. Orthovanadate was used as a control and run in parallel to the samples. Finally, the kinetic curves for ATPase activity were fit to a modified Michaelis-Menten equation (Equation (1)) [83]. Igor 6.2 Pro software (Wavemetrics, Tigard, OR, USA) was used for data analysis.(1) V=VmaxS/Km+S+Vbasal where V = Rate of ATP hydrolysis; Vmax = Maximum velocity of ATP hydrolysis; [S] = Substrate concentration; Km = Michaelis–Menten constant; and Vbasal = basal ATPase activity.

[2] = tested on: C[C@]12CC[C@H](O)C[C@H]1CC[C@@H]1[C@@H]2C[C@@H](O)[C@]2(C)[C@@H](C3=CC(=O)OC3)CC[C@]12O; assay: purified protein, by the assay type; details: other: 37 °C, 3.2 mM ATP, 50 nM proteoliposome, modified Michaelis-Menten fit, pH 7.4

Sequence of wild-type mouse Pgp (MDR3) (Mus musculus) (chain, as listed by the source): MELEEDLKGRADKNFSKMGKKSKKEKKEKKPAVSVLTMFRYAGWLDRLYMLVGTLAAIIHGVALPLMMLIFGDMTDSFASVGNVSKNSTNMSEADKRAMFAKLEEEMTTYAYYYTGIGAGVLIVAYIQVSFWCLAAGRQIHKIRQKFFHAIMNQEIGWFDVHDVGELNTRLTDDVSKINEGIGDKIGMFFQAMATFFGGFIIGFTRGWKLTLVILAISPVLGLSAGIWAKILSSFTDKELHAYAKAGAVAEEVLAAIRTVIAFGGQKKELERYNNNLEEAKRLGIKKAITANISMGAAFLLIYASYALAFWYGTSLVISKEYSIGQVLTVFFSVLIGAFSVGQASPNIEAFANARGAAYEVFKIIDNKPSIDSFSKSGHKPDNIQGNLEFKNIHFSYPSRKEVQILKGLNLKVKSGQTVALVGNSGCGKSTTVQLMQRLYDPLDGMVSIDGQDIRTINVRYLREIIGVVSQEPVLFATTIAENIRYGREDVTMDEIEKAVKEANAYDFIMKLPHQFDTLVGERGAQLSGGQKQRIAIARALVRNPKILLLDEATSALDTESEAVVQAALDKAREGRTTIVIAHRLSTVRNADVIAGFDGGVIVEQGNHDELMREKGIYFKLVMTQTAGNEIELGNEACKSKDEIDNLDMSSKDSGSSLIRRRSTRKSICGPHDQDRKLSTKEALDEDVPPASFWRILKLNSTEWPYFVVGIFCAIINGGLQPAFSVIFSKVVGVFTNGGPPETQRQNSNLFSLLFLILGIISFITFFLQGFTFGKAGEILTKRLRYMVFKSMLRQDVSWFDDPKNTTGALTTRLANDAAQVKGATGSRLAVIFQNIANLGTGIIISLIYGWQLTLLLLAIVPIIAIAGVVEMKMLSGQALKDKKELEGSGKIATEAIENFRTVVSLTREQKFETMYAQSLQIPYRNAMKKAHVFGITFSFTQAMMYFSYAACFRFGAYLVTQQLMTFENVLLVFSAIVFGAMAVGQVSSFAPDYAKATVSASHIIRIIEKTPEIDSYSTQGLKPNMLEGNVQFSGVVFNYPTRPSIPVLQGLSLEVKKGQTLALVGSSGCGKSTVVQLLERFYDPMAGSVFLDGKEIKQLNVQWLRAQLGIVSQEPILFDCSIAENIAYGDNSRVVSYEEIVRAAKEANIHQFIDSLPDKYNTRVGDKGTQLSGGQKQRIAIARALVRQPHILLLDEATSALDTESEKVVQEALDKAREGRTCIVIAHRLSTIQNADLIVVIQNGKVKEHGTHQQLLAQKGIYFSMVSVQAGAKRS

## wild-type mouse Pgp (MDR3) (Mus musculus)
[1]
  Km: 99.19 ± 13.3 µM
[2]
  Km: 426.82 ± 173.26 µM
  Vmax: 541.92 ± 111 nmol/min/mg

From paper PMC12386283, “Elucidating the Complex Structural and Molecular Mechanisms Driving P-Glycoprotein-Mediated Transport of Cardiac Glycosides” (International Journal of Molecular Sciences, 2025)
